Measured values from patent US20250361288A1 (Gilead, published 2025).
Changes are numbered by the printed parent chain. In names and notes the source's numbering stands. Like-named read-outs stand apart in the source and are kept apart here.

Legend:
[1] = target: T1, human LTβR extracellular domain fused with an Fc fragment at the C-terminus (human, UniProt P36941 31-227); test: ELISA on coated target-Fc
T1 construct: extracellular domain; Bought; also called hLTβR; not shown: Fc fragment at the C-terminus
T1 sequence (P36941 31-227): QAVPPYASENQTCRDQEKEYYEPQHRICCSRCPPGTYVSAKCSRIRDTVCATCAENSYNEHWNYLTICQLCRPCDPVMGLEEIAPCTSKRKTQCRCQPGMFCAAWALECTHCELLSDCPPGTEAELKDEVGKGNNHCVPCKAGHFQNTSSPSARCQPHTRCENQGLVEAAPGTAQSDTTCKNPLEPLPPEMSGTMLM
Experimental: (§1) Nunc MaxiSorp 96-well plates (Thermofisher) were coated with target proteins (1 μg/ml), and then blocked with 2% BSA-PBS buffer for one hour. Serial dilutions of the LIGHT muteins were added with a maximum concentration of 200 ng/ml. The plates were incubated for one hour, washed four times with PBST, and then incubated with mouse anti-His tag antibody (#105327, Sino Biological) for 1 hour. The plates were further incubated with HRP-conjugated goat anti-mouse secondary antibody (#SSA006, Sino Biological) before being washed three times with PBST and treated with TMB substrate (#34029, ThermoFisher). The plates were read at 450 nm on a SpectraMax M5 microplate reader (Molecule Devices). The ELISA results were analyzed using GraphPad Prism 9.0 software and the EC50s (half maximal effective concentration) were summarized in Table 5-1 and Table 5-2.

[2] = target: T2, mouse LTβR extracellular domain fused with an Fc fragment at the C-terminus (mouse, UniProt P50284 31-223); test: ELISA on coated target-Fc
T2 construct: extracellular domain; Bought; also called mLTβR; not shown: Fc fragment at the C-terminus
T2 sequence (P50284 31-223): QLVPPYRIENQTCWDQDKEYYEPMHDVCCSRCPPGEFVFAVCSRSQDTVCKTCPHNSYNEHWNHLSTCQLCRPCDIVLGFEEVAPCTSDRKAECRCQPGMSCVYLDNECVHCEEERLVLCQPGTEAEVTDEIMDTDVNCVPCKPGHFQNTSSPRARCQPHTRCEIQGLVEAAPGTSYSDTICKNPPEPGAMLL
Experimental: as §1

[3] = target: T3, human HVEM extracellular domain fused with an Fc fragment at the C-terminus (human, UniProt Q92956 39-202); test: ELISA on coated target-Fc
T3 construct: extracellular domain; Bought; also called hHVEM; not shown: Fc fragment at the C-terminus
T3 sequence (looked up): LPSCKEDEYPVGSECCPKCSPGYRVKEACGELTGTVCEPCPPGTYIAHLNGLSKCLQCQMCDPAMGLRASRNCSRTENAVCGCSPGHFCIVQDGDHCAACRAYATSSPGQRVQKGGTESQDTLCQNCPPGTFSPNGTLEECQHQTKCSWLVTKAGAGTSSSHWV
Experimental: as §1

[4] = target: T1, human LTβR extracellular domain fused …; test: ELISA on coated target-Fc; remark: listed apart in the source
Experimental: as §1

[5] = target: T4, recombinant DcR3 protein (human DcR3 residues 33-300 linked to the N-terminal of rabbit Fc) (human, UniProt O95407 33-300); test: ELISA on coated DcR3-rabbit Fc
T4 construct: range 33-300; Expressed in Expi293F, purified on protein A; not shown: rabbit Fc
T4 sequence (looked up): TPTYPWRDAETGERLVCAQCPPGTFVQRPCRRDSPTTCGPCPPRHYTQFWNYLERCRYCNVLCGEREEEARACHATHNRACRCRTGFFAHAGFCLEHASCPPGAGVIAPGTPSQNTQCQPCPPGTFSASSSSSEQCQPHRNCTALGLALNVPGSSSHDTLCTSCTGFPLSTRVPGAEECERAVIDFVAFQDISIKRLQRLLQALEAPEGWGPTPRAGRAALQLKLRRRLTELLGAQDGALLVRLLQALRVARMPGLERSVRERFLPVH
Experimental: To test whether the muteins can bind to DcR3, the recombinant DcR3 protein was generated by linking human DcR3 residues 33-300 to the N-terminal of rabbit Fc. The recombinant proteins were expressed in Expi293F and affinity-purified using protein A beads, as previously described. Human DcR3 proteins were immobilized onto maxiSorp 96-well ELISA plates (Thermo Fisher) at a concentration of 0.5 μg/mL and then blocked with 2% BSA-PBS buffer for one hour. The LIGHT variants were added to the plates at various dilutions, with a maximum concentration of 10 nM. The plates were incubated for one hour, washed four times with PBST, and then incubated with mouse anti-His tag antibody (#105327, Sino Biological) for 1 hour. The plates were further incubated with HRP-conjugated goat anti-mouse secondary antibody (#SSA006, Sino Biological) before being washed three times with PBST and treated with TMB substrate (#34029, ThermoFisher). The plates were read at 450 nm on a SpectraMax M5 microplate reader (Molecule Devices). The ELISA results were analyzed using GraphPad Prism 9.0 software and the EC50s (half maximal effective concentration) were summarized in Table 5-2.

[6] = target: T5, mouse HVEM extracellular domain fused with an Fc fragment at the C-terminus (mouse, UniProt Q80WM9 39-206, limits assumed); test: phage ELISA
T5 construct: extracellular domain; Bought; also called mHVEM; not shown: Fc fragment at the C-terminus
T5 sequence (looked up): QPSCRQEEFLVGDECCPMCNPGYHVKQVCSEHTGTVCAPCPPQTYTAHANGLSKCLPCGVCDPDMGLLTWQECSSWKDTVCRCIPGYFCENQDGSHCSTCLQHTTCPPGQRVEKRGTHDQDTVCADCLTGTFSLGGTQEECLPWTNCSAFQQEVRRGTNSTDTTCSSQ
Outline: (§2)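 Supernatants from fourth-round clones rescued with helper phage were applied to plates coated with 1 μg/ml target for 1 h at room temperature. Bound phage detected with HRP anti-M13 and TMB at OD450; clones were called positive when the target/BSA ratio was >3.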

[7] = target: T2, mouse LTβR extracellular domain fused …; test: ELISA on coated target-Fc; remark: listed apart in the source
Experimental: as §1

[8] = target: T3, human HVEM extracellular domain fused …; test: ELISA on coated target-Fc; remark: listed apart in the source
Experimental: as §1

[9] = target: T3, human HVEM extracellular domain fused …; test: ELISA on coated target-Fc, Table 5-1
Experimental: as §1

[10] = target: T2, mouse LTβR extracellular domain fused …; test: phage ELISA
Outline: as §2

B1: LIGHT (74-240) (ligand)
chain: DGPAGSWEQLIQERRSHEVNPAAHLTGANSSLTGSGGPLLWETQLGLAFLRGLSYHDGALVVTKAGYYYIYSKVQLGGVGCPLGLASTITHGLYKRTPRYPEELELLVSQQSPCGRATSSSRVWWDSSFLGGVVHLEAGEKVVVRVLDERLVRLRDGTRSYFGAFMV
notes: Soluble protein carries an N-terminal His tag; also called wild-type human LIGHT; LIGHT (74-240) (wt)
EC50 [1]: 0.22 µg/mL | EC50 [2]: 0.885 nM | EC50 [3]: 0.992 nM | EC50 [4]: 0.365 nM | EC50 [5]: 0.247 nM | binding result [6]: binds

B2: LIGHT-61 (ligand)
chain: B1 chain with S87G, T88P, L147S, E149S
notes: Printed mutations: S160G, T161P, L220S, E222S; Soluble protein carries an N-terminal His tag
EC50 [2]: 0.498 nM | EC50 [3]: 0.46 nM | EC50 [4]: 0.482 nM | EC50 [5]: 0.213 nM

B3: LIGHT-52 (ligand)
chain: B1 chain with L147S
notes: Printed mutations: L220S; Soluble protein carries an N-terminal His tag
EC50 [7]: 0.0279 µg/mL | EC50 [8]: 0.019 µg/mL | EC50 [1]: 0.0577 µg/mL | EC50 [2]: 2.07 nM | EC50 [3]: 0.599 nM | EC50 [4]: 0.33 nM | EC50 [5]: 0.19 nM | binding result [6]: binds

B4: LIGHT-36 (ligand)
chain: B1 chain with H135Y
notes: Printed mutations: H208Y; Soluble protein carries an N-terminal His tag
EC50 [7]: 0.27 µg/mL | EC50 [8]: 0.137 µg/mL | EC50 [1]: 0.19 µg/mL | binding result [6]: binds

B5: LIGHT-27 (ligand)
chain: B1 chain with S87N, T88S, L147S, E149D
notes: Printed mutations: S160N, T161S, L220S, E222D; Soluble protein carries an N-terminal His tag
EC50 [7]: 0.0642 µg/mL | EC50 [8]: 0.0504 µg/mL | EC50 [1]: 0.0827 µg/mL | binding result [6]: binds

B6: LIGHT-87 (ligand)
chain: B1 chain with G77R, S87R, W125Q, L147S, R155L
notes: Printed mutations: G150R, S160R, W198Q, L220S, R228L; Soluble protein carries an N-terminal His tag
EC50 [2]: 0.315 nM | EC50 [3]: 6.68 nM | EC50 [4]: 0.413 nM

B7: LIGHT-3 (ligand)
chain: B1 chain with G77A, L147S
notes: Printed mutations: G150A, L220S; Soluble protein carries an N-terminal His tag
EC50 [7]: 0.0401 µg/mL | EC50 [1]: 0.0436 µg/mL | binding result [9]: no binding | binding result [6]: binds

B8: LIGHT-86 (ligand)
chain: B1 chain with G77R, S87R, L147S
notes: Printed mutations: G150R, S160R, L220S; Soluble protein carries an N-terminal His tag
EC50 [2]: 0.327 nM | EC50 [3]: 5.27 nM | EC50 [4]: 0.336 nM | EC50 [5]: 25.9 nM

B9: LIGHT-5 (ligand)
chain: B1 chain with T88P, R116S, W125Q, R155L
notes: Printed mutations: T161P, R189S, W198Q, R228L; Soluble protein carries an N-terminal His tag
EC50 [1]: 0.0538 µg/mL | binding result [9]: no binding | binding result [6]: binds | binding result [10]: binds

B10: LIGHT-58 (ligand)
chain: B1 chain with S87G, T88G, L147S
notes: Printed mutations: S160G, T161G, L220S; Soluble protein carries an N-terminal His tag
EC50 [2]: 0.273 nM | EC50 [3]: 0.432 nM | EC50 [4]: 0.309 nM | EC50 [5]: 0.184 nM

B11: LIGHT-24 (ligand)
chain: B1 chain with S87G, A117T, L147S
notes: Printed mutations: S160G, A190T, L220S; Soluble protein carries an N-terminal His tag
binding result [7]: binds | EC50 [8]: 0.0632 µg/mL | binding result [1]: binds | binding result [6]: binds

B12: LIGHT-34 (ligand)
chain: B1 chain with T88S, L147S
notes: Printed mutations: T161S, L220S; Soluble protein carries an N-terminal His tag
EC50 [7]: 0.0446 µg/mL | EC50 [8]: 0.0202 µg/mL | EC50 [1]: 0.059 µg/mL | binding result [6]: binds
